Measured values published in the supplement of paper PMC10567573.

B1: TMEM106C (parent)
chain: YVTTNVSLIPPRSEQLVNFTGKAE
B2: MYL5 (parent)
chain: FQFASIDVAGNLDYKALSYVITHG

Variants of: B1
Assay: protein stability index of a GFP-peptide fusion (GPS, HEK-293T) (PSI 1-6); higher = more stable
Details: c terminus: a fixed tail appended
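Note: lentivirally expressed fusions sorted by FACS into six bins by GFP to DsRed ratio, PSI derived from sequencing read proportions per bin multiplied by bin number.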

Protein stability index: each site, then its substitutions
T4: F 1.43 | D 2.03 | Y 2.24 | R 2.23 | P 2.43 | Q 2.54 | I 1.75 | H 2.07 | C 1.29 | K 1.77 | M 2.59 | W 2.85 | E 1.94 | S 1.86 | A 1.71 | G 1.89 | V 1.51 | L 2.45 | N 2.1
V6: N 2.26 | Q 1.68 | D 2.37 | E 2.36 | W 2.57 | K 1.87 | L 2.06 | P 2 | H 1.59 | C 1.82 | A 1.86 | I 1.86 | T 2.02 | G 1.77 | S 1.91 | Y 2.76 | R 1.92 | F 3.64 | M 1.75
T3: P 3.42 | S 1.98 | Y 2.45 | Q 2.64 | I 2.12 | G 2.11 | L 2.15 | K 2.18 | M 1.46 | C 2.3 | R 2.52 | D 1.9 | H 1.98 | A 2.75 | F 2.58 | W 2.91 | N 1.82 | V 1.98 | E 2.99
L8: S 2.26 | R 1.6 | Q 1.53 | M 2.5 | F 2.54 | T 1.95 | V 1.67 | G 2.39 | D 2.44 | I 2.04 | H 2.16 | W 2.1 | A 2.21 | N 1.98 | P 1.75 | C 1.66 | E 2.61 | K 1.71 | Y 1.86
I9: P 1.81 | E 2.25 | H 2.46 | Q 1.61 | W 1.75 | K 2.02 | Y 2.32 | S 1.71 | F 1.7 | C 1.2 | G 1.6 | V 1.51 | T 2.43 | R 1.99 | N 2.17 | M 1.86 | A 2.94 | L 1.7 | D 2.24
V2: M 3.03 | L 2.83 | C 2.3 | S 3.79 | Q 3.28 | W 2.66 | R 3.23 | E 4.58 | F 2.98 | K 3.51 | N 4.08 | I 2.67 | A 2.81 | T 3.48 | D 4.58 | Y 3.22 | G 4.17 | H 2.62 | P 3.98
N5: W 3.52 | H 1.66 | M 2.16 | S 1.63 | K 2.41 | I 2.24 | Q 2.71 | D 1.96 | V 1.69 | E 2.05 | C 2.28 | P 2.67 | F 2.64 | A 1.91 | Y 2.98 | L 2.32 | G 1.22 | R 2.17 | T 2.52
P10: A 3.06 | S 1.82 | F 2.74 | H 1.91 | C 2.58 | M 2.82 | L 1.86 | D 1.46 | K 2.45 | Q 2.26 | R 3 | G 3.2 | E 1.66 | N 2.78 | I 2.65
Y1: G 4 | R 3.44 | L 2.94 | Q 3.17 | T 3.44 | W 2.15 | E 3.54 | S 3.24 | I 2.46 | P 3.49 | C 2.4 | H 3.88 | M 3.08 | D 3.69 | V 2.19 | N 3.79 | A 3.53 | F 2.21 | K 3.61
S7: G 2.36 | I 3.34 | V 1.79 | L 2.45 | T 2.64 | Y 3.23 | H 2.29 | C 2.56 | N 2.18 | R 2.13 | M 1.57 | K 1.36 | E 2.13 | F 1.83 | W 1.54 | A 1.31 | Q 2.27 | P 2.81 | D 2.37

Variants of: B2
Assay: as above
Details: c terminus: a fixed tail appended

Protein stability index: each site, then its substitutions
V20: M 1.49 | N 1.7 | C 3.44 | S 3.47 | K 2.23 | P 1.32
G10: P 2.92 | F 2.96 | W 1.35 | E 3.19 | K 2.08
A4: T 2.81 | E 2.51 | S 2.84 | N 2.56 | L 4.51
N11: A 2.52 | T 2.92 | Q 5.1
T22: A 2.03 | W 4.39 | G 3.98 | E 2.02
Y19: D 1.53 | M 2.44 | E 2.89 | K 1.06 | G 3.74 | Q 3.41 | F 1.87 | V 2.19
H23: R 2.65 | P 2.56 | E 2.44 | K 1.43
Y14: S 2.15 | A 1.82 | R 3.3 | H 2.1 | W 3.44 | Q 2.03 | T 3.5 | N 2.27
G24: T 3.18 | R 3.26 | F 2.42 | L 3.92 | A 3
A16: E 2.37 | N 1.91 | L 2.64 | T 2.44 | D 3.18
I21: G 2.37 | H 1.53 | S 1.72 | T 1.54 | A 2.79 | D 2.57 | N 1.93 | M 1.48 | R 1.03 | K 1.64
Q2: F 2.36 | E 4.45 | A 1.56 | D 4.24 | H 2.06 | T 2.75 | M 2.75 | N 3.37
F3: K 1.43 | D 1.34 | Y 2.59 | A 2.17 | Q 2.32 | E 1.56 | R 1.75 | P 2.84
S5: V 2.69 | D 2.43 | C 1.36 | Y 3.17 | F 3.77 | A 3.09 | M 3.67
A9: K 2.71 | L 2.77 | M 3.38 | H 2.26 | Q 1.91 | T 3.01 | N 3.37
S18: M 3.46 | K 1.62 | Q 1.49 | D 1.75
K15: S 2.31 | Q 3.65 | I 2.98 | N 2.34 | T 3.79 | A 3.38 | V 2.4
D7: A 2.72 | C 3.48 | R 1.11 | Y 3.46
L12: F 4.33 | Y 2.45 | C 1.24 | E 3.08 | P 2.88 | V 2.56
V8: S 2.09 | R 2.8 | N 2.44 | W 2.9
D13: P 2.51 | T 2.23 | A 3.41
L17: S 3.25 | A 2.49 | G 2.72 | Y 2.8 | E 1.44 | Q 2.03 | F 2.71 | M 3.7 | P 2.35
I6: G 1.26 | H 4 | M 3.92 | D 1.4 | F 4.13 | S 1.18 | N 3.39 | P 2.43
F1: Y 2.68 | L 1.89 | E 1.23 | W 3.55 | T 1.55 | K 1.27 | D 1.43 | N 1.61 | P 2.79 | I 3.26
